Experimental data reported in the DeepSol protein solubility set.

experiment: soluble on expression in E. coli; label from the status in PepcDB or PDB records

Sequence | soluble on expression in E. coli
SKGLSFSSVYSVGNAAQTGVEDVLEHLDETFDAATSSHTLLLYIETISKPKRFLKHARSLVQKGCRIAAIKSGTSSDGGRAAASHTGAMLNSDVAVDALFRKAGVVRCYSREELATVGAVLQHPVLTGKNMAVITHAGGPAVMLTDALSNGGMSVPPIPEEKTRTLLSELFDGSSVANPIDILATGTAEQLSKVIDTCEKDLDTIDGMVVIFGSPGLFDVSDAYDVIREQQKKCKKPIYAVLPSVINAKEGMERFIAQGGILFEEEVALARAICKVYQTPKPEMTEESELPKAAEIRRLLAGKSGMLGTGDML | not soluble
SKLLENSSFEAINSQLTVETGDAHIIGRIESYSCKMAGDDKHMFKQFCQEGQPHVLEALSPPQTSGLSPSRLSKSQGGEEEGPLSDKCSRKTLFYLIATLNESFRPDYDFSTARSHEFSREPSLSWVVNAVNCSLFSAVREDFKDLKPQLWNAVDEEICLAECDIYSYNPDLDSDPFGEDGSLWSFNYFFYNKRLKRIVFFSCRSISGSTYTPSEAGNELDMELGEEEVEEESRSRGSGAEETSTMEEDRVPVICI | soluble
SKRKARRGAGMPDYETVALVLQGGGALGAYQAGVYEGLHAAGIRPNWLAGISIGGINAAIIAGAPVDERVGRLRGFWEAICRPTGFVGLPWGDAWAALFANAPFGFGSNQSNGQLAAFNALTRGQPGFFEPRFPPPYLVQGGGAAATSFYDTTPLLQTLRDYVDFDLLNRGDVRVSLGAVNVRTGNFAYFDSRETVIRPEHVMASGALPPGFPAIEIDGEFYWDGGLVSNTPLTKVLAVHPMRDTLAFQVDLWPARGPLPTSLEEVAERQKDIQYSSRTRIVTDTFRRQLKLRRSLQRVLDRLPPQVRSSRELAQIRREACTPLVNVVNLIYEANQFERHSKDYEFNTESMREHWRFGLADIERTLAQPGV | not soluble
SKSNLEYSFSNILKNIFSPIREKESVKKVIYYSIPIALTTASYRLVNDLDGIFILSMLGAYDNGVYGY | not soluble
SKVWKYFGFDTNAEGCILQWKKIYCRICMAQIAYSGNTSNLSYHLEKNHPEEFCEFVKSN | soluble
SLALSPGNLQKTAAGPDGQPQLAEKAPEKAQVDVPAAGDTAGLQPQSGRSGANINRATLPDGNVVSVYSPRPRDSDGPVLMSGQTYGQDPRMATRPNEELLEETAFGQLPVVGADGLRPMEQYARPWSGARGTRVAIVVGGLGLSQTGSQKAIRDLPPEVTLGFAASGNSLQRWMQDARREGHEILLQIPLEPFGYPGTNPGPDTLLAGDPAKVNIDRLHRSMAKITNYTGVMNYLGGRFLAEQSALEPVMRDIGKRGLLFLDDGSSAQSLSGGIAKAISAPQGFADVLLDGEVTEASILRKLDDLERIARRNGQAIGVASAFDESIAAISKWSREAGGRGIEIVGVSALVSGQAGQ | soluble
SLAWHQRKHTQATPLRDIAADYTLQDFKLVALDTQTGKESLTLLGQQMQHNQTDSSAEVTAPLFMIPDQAGQHWTLQAQTGWINKDGTLLRLRHDVKGDSPTDLGQLPTTFRTQSLDIYPNHHLAKTTDAVTITHQGIIQTGVGFEVNTKTQQYKFNSKVNTRYEPSAAR | soluble
SLDITFIDETEKVPTEEIKEIENLLQFAAGFLEIAEDTEMSVTFTDNAGIQMINRDYRGKDMPTDVISFALEDEGEDELPIIFDDEELAELPRNLGDLIISTERAAEQAVEYGHTLEREMGFLAVHGFLHLNGYDHMEPEDEKEMFGLQKEILDAYGLKR | soluble
SLDMIRIDSQTNSSHLKDEFQTLNSVTPRLQAEDCSIACLPRNHDKNRFMDMLPPDRCLPFLITIDGESSNYINAALMDSYRQPAAFIVTQYPLPNTVKDFWRLVYDYGCTSIVMLNEVDLSQGCPQYWPEEGMLRYGPIQVECMSCSMDCDVINRIFRICNLTRPQEGYLMVQQFQYLGWASHREVPGSKRSFLKLILQVEKWQEECEEGEGRTIIHCLNGGGRSGMFCAIGIVVEMVKRQNVVDVFHAVKTLRNSKPNMVEAPEQYRFCYDVALEYLESS | not soluble
SLEEYHKWYYGNLVWTKTTYMGINCWKSVSDMWNYQEILSELQPSLVIEFGTRYGGSAVYFANIMRQIGQPFKVLTVDNSHKALDPRARREPDVLFVESSSTDPAIAEQIQRLKNEYPGKIFAILDSDHSMNHVLAEMKLLRPLLSAGDYLVVEDSNINGHPVLPGFGPGPYEAIEAYEDEFPNDYKHDAERENKFGWTSAPNGFLIRN | soluble
SLGGEVSGKGPAVAAREARDPLPDAGASPAPSRCCRRRSSVAFFAVCDGHGGREAAQFAREHFWGFIKKQKGFTSSEPAKVCAAIRKGFLACHLAMWKKLAEWPKTMTGLPSTSGTTASVVIIRGMKMYVAHVGDSGVVLGIQDDTKDDFVRAVEVTQDHKPELPKERERIEGLGGSVMNKSGVNRVVWKRPRLTHNGPVRRSTVIDQIPFLAVARALGDLWSYDFFSGEFVVSPEPDTSVHTLDPQKHKYIILGSDGLWNMIPPQDAISMCQDQEEKKYLMGEHGQSCAKMLVNRALGRWRQRMLRADNTSAIVICISPEVDNQGNFTNEDELYLNLTDGPSYNSQETCVMTPSPCSTPPVKSLEEDPWPRVNSKDHIPALVRSNAFSENFLEVSAEIARENVQGVVIPSKDPEPLEEN | soluble
SLGSQSSKAPRGDVTAEEAAGASPAKANGQENGHVKSNGDLSPKGEGESPPVNGTDEAAGATGDAIEPAPPSQGAEAKGEVPPKETPKKKKKFSFKKPFKMSGMSFKRNRKEGGGDSSASSPTEEEQEQGEIGACSDEGTAQEGKAAATPESQEPQAKGAEASAASEEEAGPQATEPSTPSGPESGPTPASAEQNE | soluble
SLHNGGLMAGWHLDTKMAQDIVARTMRIIDTNINVMDARGRIIGSGDRERIGELHEGALLVLSQGRVVDIDDAVARHLHGVRQGINLPLRLEGEIVGVIGLTGEPENLRKYGELVCMTAEMMLEQSRLMHLLAQDSRLREELVMNLIQAEENTPALTEWAQRLGIDLNQPRVVAIVEVDSGQLGVDSAMAELQQLQNALTTPERNNLVAIVSLTEMVVLKPALNSFGRWDAEDHRKRVEQLITRMKEYGQLRFRVSLGNYFTGPGSIARSYRTAKTTMVVGKQRMPESRCYFYQDLMLPVLLDSLRGDWQANELARPLARLKTMDNNGLLRRTLAAWFRHNVQPLATSKALFIHRNTLEYRLNRISELTGLDLGNFDDRLLLYVALQLDEER | soluble
SLIDNPHAQDYWPNRGQMDVQGLAVKYTEAGRAVLSDISFSVEGGLSMGLLGRTGSGKSTLLSALLRLASTDGEISIDGISWNSVPLEKWRKAFGVVPQKVFILTGTFRMNLDPHGRYSDEELWRVADQVGLKSVIEQFPDRLDFQLENGGSVLSHGHKQLMCLARSILSKARILLLDEPSAYLDTITLQVLRKTLKHAFSDCTVILSEAKVEPLLECDSFLVIEGSSVKSYDSIQKLLNEMSDLKQAVSAAD | not soluble
SLKCYTCKEPMTSASCRTITRCKPEDTACMTTLVTVEAEYPFNQSPVVTRSCSSSCVATDPDSIGAAHLIFCCFRDLCNSEL | soluble
SLKIFTSKKGQLSQLKQQKFKLEKDIQRLFEENLTLLSGYIFIRSEFSIKNSRIDTLAFDPETQAFVIIEYKRQQNSSVVDQGISYLNLMLEYKADFIVEYNEKQKVPLKRNDVDWSQSKVIFVSPAFNDFQIQATNFKDLPIELWEVNRFDNDIITLNIINKSKSAPNIKAVSNEKREEFSILKEIKVYQESDHLADKTDFIQELYEDFKQGILNLDPDIEINTRKLYIAFKKDRNIADIRIQQKNLKIWINLPYGELDDPKNLAKNVSNTGHWGNGDYEITIESTQYLEYIMSLIKQAIKD | soluble
SLKTKTFKMQLQFLSEQNLEINNNNQLLNQEKITYLQKIEQLKCKLEYQERMIKDSEKIREESFASAKAALFDLGKDLSKQLIEIHKMENNTTRELAEKNIETASQKFNTELERLITMVGALNKDIEQSKGTVDLIKQSLLSPIGAGLLSEITLENILKSSGLRPNLDFIMQYSLTTSDSVKLRPDAIIFLPSGNLMVIDSKASKFLVDSQDNSVHLSKTMNYHLKTLTNKDYAENILTNLNKKTQNFNNVITLMFLPTEQAVEKVIAANPEFLQKAWGCNIFPVGPAGLMNMLSFAKFQITDNRRSENYKVIIEEVRKLLSSIGTIADYSKKIGYNLQNMVTNYDKFAASFNRNVMSRVKSIQKLGIDSGNKIIPATLERYQIVSAKSEIIEVDVENQHK | soluble
SLLLKMDAFQDRLGTRGMLVRKGDHDETKVLPAVPVPQVRAANLPAAQAGDARIGTLPALFQALRASLPADEECNGLQAGDAQEPLTVTRLSTDKLLVSTDCWMGAYNVGTGVRVLNARAPFSCQPW | not soluble
